Reference: article doi:10.1101/2022.05.31.494220

Target: peptide encoding HTP-3 closure motif #4 (C. elegans)
Experiment: fluorescence polarisation

B1: HIM-3 (wildtype) (natural protein)
chain: ATKEQIVEHRESEIPIASQWKATFPVDLEIEKNSEMFALRYIKCASAFILDRRGILDEKCFKTRTIDKLLVTAFQSSVPAAKRVSSTFDGLRDAIQQGYLREFAIVFYKKPNEEDINEVFAFRFAYGDEGEIFVSLNNGIDTNESSQELLQAKFVDTDNTKQMFASTIKKLHRCIKKMEPLPQGSDASFRVSYTEKAPKDYTPEGYLLSPMFYTLNQDIRKASIGIVCGGHHKIQMLAASQYLKQDFDLDKTTTLNPNMSIMANQSKRKGRISRDSPYGLSQGITKKNKD
B1 showed a Kd of 220 nM.

B2: HIM-3^R93Y (natural protein)
chain: ATKEQIVEHRESEIPIASQWKATFPVDLEIEKNSEMFALRYIKCASAFILDRRGILDEKCFKTRTIDKLLVTAFQSSVPAAKRVSSTFDGLYDAIQQGYLREFAIVFYKKPNEEDINEVFAFRFAYGDEGEIFVSLNNGIDTNESSQELLQAKFVDTDNTKQMFASTIKKLHRCIKKMEPLPQGSDASFRVSYTEKAPKDYTPEGYLLSPMFYTLNQDIRKASIGIVCGGHHKIQMLAASQYLKQDFDLDKTTTLNPNMSIMANQSKRKGRISRDSPYGLSQGITKKNKD
For B2, the Kd was 690 nM.
